The record followed here is patent US20220048947A1 (NANOTAG BIOTECHNOLOGIES, published 2022).

The chains are these.
B5: NbALFA^ST (NbALFA clone 1G5) (VHH)
VHH: EVQLQESGGGLVQPGGSLRLSCTASGVTISALNAMAMGWYRQAPGERRVMVAAVSERGNAMYRESVQGRFTVTRDFTNKMVSLQMDNLKPEDTAVYYCHVLEDRVDSFHDYWGQGTQVTVSS
notes: Alpaca single-domain antibody; also called ALFA Selector^ST (immobilised on agarose resin); FluoTag-X2 anti-ALFA (coupled to AbberiorStar635P or IRDye800CW)

Where no end group is shown, it is not given here.

Experiment [1] deals with B5. Kind of experiment: peptide elution from NbALFA^ST resin; tag position N.
In experiment [2] the target is B5. The experiment is described as follows: peptide elution from NbALFA^ST resin; tag position C.
Experiment [3] deals with B5. The experiment is described as follows: peptide elution from NbALFA^ST resin; tag position M.
The target in experiment [4] is T1, PpiD (E. coli, UniProt P0ADY1 1-623).
T1 sequence (looked up): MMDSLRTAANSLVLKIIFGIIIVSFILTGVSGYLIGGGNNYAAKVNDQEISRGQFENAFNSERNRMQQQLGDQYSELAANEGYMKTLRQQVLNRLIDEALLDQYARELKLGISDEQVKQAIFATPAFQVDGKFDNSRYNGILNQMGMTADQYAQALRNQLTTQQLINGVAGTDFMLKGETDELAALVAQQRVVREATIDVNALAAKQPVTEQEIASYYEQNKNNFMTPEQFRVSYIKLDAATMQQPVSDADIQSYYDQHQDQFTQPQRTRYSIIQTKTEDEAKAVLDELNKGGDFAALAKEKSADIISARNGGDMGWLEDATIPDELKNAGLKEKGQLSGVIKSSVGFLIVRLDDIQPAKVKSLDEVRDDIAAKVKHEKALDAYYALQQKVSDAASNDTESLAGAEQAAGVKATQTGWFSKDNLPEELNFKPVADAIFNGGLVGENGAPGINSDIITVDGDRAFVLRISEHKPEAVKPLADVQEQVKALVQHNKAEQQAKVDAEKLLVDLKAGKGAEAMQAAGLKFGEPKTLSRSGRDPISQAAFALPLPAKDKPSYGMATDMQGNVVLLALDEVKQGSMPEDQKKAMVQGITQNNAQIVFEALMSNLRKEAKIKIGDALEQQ
Kind of experiment: pull-down on ALFA Selector^ST from DDM lysate, Western blot.

Experiment [5] concerns the target T2, YfgM (non-tagged) (E. coli, UniProt P76576 1-206).
T2 construct: Control without tag; also called wild-type YfgM; untagged YfgM
T2 sequence: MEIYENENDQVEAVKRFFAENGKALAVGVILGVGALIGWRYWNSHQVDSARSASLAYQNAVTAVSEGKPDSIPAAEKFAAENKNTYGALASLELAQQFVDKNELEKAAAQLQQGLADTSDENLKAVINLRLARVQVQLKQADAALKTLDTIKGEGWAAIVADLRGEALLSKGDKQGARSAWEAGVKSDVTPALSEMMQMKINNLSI
The description is as above.

The target in experiment [6] is T3, ALFA^ST peptide (Ac-PSRLEEELRRRLTEP-Amide).
T3 construct: also called free ALFA^ST peptide; ALFA peptide
T3 peptide: Ac-PSRLEEELRRRLTEP-NH2
Kind of experiment: X-ray structure of the complex.

Experiment [7] addresses T4, ALFA^ST-FLAG-Vimentin (Mus musculus (Mouse), UniProt P20152 2-466).
T4 construct: Expressed in COS-7 cells; also called ALFA^ST-Vimentin; ALFA^ST-tagged Vimentin
Kind of experiment: direct immunofluorescence on PFA-fixed COS-7 cells.

A further experiment deals with T5, ALFA^PE-FLAG-Vimentin (Mus musculus (Mouse), UniProt P20152 2-466).
T5 construct: Expressed in COS-7 cells; also called ALFA^PE-Vimentin; ALFA^PE-tagged Vimentin
Kind of experiment: direct immunofluorescence on PFA-fixed COS-7 cells.

Experiment [8] addresses maltose-binding protein (MBP) fused to multiple epitope tags (FLAG, HA, myc and ALFA^ST). Kind of experiment: dot blot, 2.7 nM nanobody or primary antibody.
Experiment [9] addresses T4, ALFA^ST-FLAG-Vimentin. The experiment is described as follows: intrabody co-expression in COS-7 cells, fluorescence microscopy.
Experiment [10] has as its target T1, PpiD. Kind of experiment: pull-down on ALFA Selector^PE from DDM lysate, Western blot.
The target of experiment [11] is T2, YfgM (non-tagged). The experiment is described as above.

T4 sequence (P20152 other isoform, or with tags, fused parts or gaps): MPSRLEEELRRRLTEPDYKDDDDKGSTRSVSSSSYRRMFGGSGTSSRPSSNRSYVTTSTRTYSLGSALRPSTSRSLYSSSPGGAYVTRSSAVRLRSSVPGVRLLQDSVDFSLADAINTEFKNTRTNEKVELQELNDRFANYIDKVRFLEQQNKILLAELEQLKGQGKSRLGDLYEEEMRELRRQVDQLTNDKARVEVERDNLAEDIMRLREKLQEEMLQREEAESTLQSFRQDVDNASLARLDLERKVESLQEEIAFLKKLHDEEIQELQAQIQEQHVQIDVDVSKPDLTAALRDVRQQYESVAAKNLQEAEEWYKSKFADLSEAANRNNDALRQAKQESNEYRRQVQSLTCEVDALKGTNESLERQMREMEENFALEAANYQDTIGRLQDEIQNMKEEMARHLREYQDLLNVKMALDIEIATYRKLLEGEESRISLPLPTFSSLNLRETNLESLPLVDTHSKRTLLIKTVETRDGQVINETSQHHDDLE
T5 sequence (P20152 other isoform, or with tags, fused parts or gaps): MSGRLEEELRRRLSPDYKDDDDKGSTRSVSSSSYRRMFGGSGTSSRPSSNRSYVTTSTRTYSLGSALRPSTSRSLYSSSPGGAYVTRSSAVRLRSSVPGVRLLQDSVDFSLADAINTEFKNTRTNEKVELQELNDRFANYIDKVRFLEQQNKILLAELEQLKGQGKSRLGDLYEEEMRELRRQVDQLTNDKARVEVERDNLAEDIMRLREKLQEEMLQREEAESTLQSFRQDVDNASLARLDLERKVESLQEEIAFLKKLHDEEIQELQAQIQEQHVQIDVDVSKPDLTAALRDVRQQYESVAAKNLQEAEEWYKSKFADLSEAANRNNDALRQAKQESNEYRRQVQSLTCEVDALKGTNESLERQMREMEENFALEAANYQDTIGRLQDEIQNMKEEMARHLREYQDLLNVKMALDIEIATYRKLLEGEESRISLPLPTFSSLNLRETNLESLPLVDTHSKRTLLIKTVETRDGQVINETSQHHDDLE

B1: MSGLEQELRRRLTPs (SEQ ID NO: 110) (peptide)
peptide: MSGLEQELRRRLTPS
modifications: not fully specified (residue 15); printed as MSGLEQELRRRLTPs
notes: Tag variant tested inside a fusion protein, position N
In experiment [1], B1 showed a t1/2 of under 0.0333 h.

B2: gPSRLEEELRRRLT. (SEQ ID NO: 18) (peptide)
peptide: GPSRLEEELRRRLT
notes: Tag variant tested inside a fusion protein, position C
The molecule B2 came in with a t1/2 in experiment [2] of over 1.67 h.

B3: pSRLEEELRRRLTE (SEQ ID NO: 7) (peptide)
peptide: PSRLEEELRRRLTE
notes: Tag tested inside a fusion protein, position C; also called ALFA^ST tag (C-terminal)
B3 had a t1/2 in experiment [2] of over 1.67 h.

B4: psTRLEEELRRRLTAp (SEQ ID NO: 10) (peptide)
peptide: PSTRLEEELRRRLTAP
notes: Tag variant tested inside a fusion protein, position M
In experiment [3], B4 displayed a t1/2 of over 1.67 h.

As to B5, the binding result with PpiD [4] is given as “no binding”; with YfgM (non-tagged) [5] it was “no binding”; in [6] it was “binds”; in the experiment with ALFA^ST-FLAG-Vimentin [7], “binds”; in the experiment with ALFA^PE-FLAG-Vimentin it was “binds”. Besides, the “fold lower detection limit against all other epitope tags” value in experiment [8] was about 10 fold.

B6: NbALFA^ST-mScarlet-I (VHH)
VHH: EVQLQESGGGLVQPGGSLRLSCTASGVTISALNAMAMGWYRQAPGERRVMVAAVSERGNAMYRESVQGRFTVTRDFTNKMVSLQMDNLKPEDTAVYYCHVLEDRVDSFHDYWGQGTQVTVSS
notes: Intrabody fusion expressed in COS-7 cells; also called pNT1004
On to B6, for which the binding result with ALFA^ST-FLAG-Vimentin [9] is “binds”.

B7: NbALFA^PE (VHH)
VHH: EVQLQESGGGLVQPGGSLRLSCTASGVTISALNAMAMGWYRQAPGEERVMVAAVSSRGNAMYRESVQGRFTVTRDFTNKMVSLQMDNLKPEDTAVYYCHVLEDRVDSFHDYWGQGTQVTVSS
notes: Weaker mutant of NbALFA^ST made by rational mutagenesis from the crystal structure; used on agarose (ALFA Selector^PE) or in solution (MST); also called NbALFA^PE mutant; ALFA Selector^PE (immobilised on agarose resin)
On to B7, for which the binding result in the experiment with PpiD [10] and with YfgM (non-tagged) [11] was “no binding” each time.

B8: gPSRLEEELRRRLTA. (SEQ ID NO: 19) (peptide)
peptide: GPSRLEEELRRRLTA
notes: as for B2
In experiment [2], B8 gave a t1/2 of over 1.67 h.

B9: grSRLEEELRRRLTA. (SEQ ID NO: 08) (peptide)
peptide: GRSRLEEELRRRLTA
notes: as for B2
B9 had a t1/2 in experiment [2] of over 1.67 h.

B10: gpSRLEEELRRRLTE. (SEQ ID NO: 28) (peptide)
peptide: GPSRLEEELRRRLTE
notes: as for B2
With B10, the t1/2 in experiment [2] was over 1.67 h.

B11: MsSRLEEELRRRLTEp (SEQ ID NO: 30) (peptide)
peptide: MSSRLEEELRRRLTEP
modifications: not fully specified (residues 2, 16); printed as MsSRLEEELRRRLTEp
notes: as for B1
B11 showed a t1/2 in experiment [1] of over 1.67 h.

B12: gPSRLEEELRRRLTAa. (SEQ ID NO: 20) (peptide)
peptide: GPSRLEEELRRRLTAA
notes: as for B2
The molecule B12 registered a t1/2 in [2] of over 1.67 h.

B13: gpSRLEEELRRRLTAp. (SEQ ID NO: 26) (peptide)
peptide: GPSRLEEELRRRLTAP
notes: as for B2
Regarding B13, the t1/2 in experiment [2] was over 1.67 h.

B14: spSGLEEELRRRLTEp (SEQ ID NO: 17) (peptide)
peptide: SPSGLEEELRRRLTEP
notes: as for B4
In turn, B14 returned a t1/2 in experiment [3] of over 1.67 h.

B15: spSGLEQELRRRLTEp (SEQ ID NO: 25) (peptide)
peptide: SPSGLEQELRRRLTEP
notes: as for B4
With B15, in experiment [3], the t1/2 is over 1.67 h.

B16: spSRLEEELRRRLTEp (SEQ ID NO: 15) (peptide)
peptide: SPSRLEEELRRRLTEP
notes: as for B4
As for B16, in [3], the t1/2 was over 1.67 h.

B17: spSRLEEELRRRLEAp (SEQ ID NO: 13) (peptide)
peptide: SPSRLEEELRRRLEAP
notes: as for B4
B17 gave a t1/2 in experiment [3] of over 1.67 h.

B18: gpSRLEEELRRRLTEp. (SEQ ID NO: 27) (peptide)
peptide: GPSRLEEELRRRLTEP
notes: as for B2
For B18, the t1/2 in [2] is over 1.67 h.

B19: spSRLEEELRRRLDAp (SEQ ID NO: 12) (peptide)
peptide: SPSRLEEELRRRLDAP
modifications: not fully specified (residues 1, 2, 16); printed as spSRLEEELRRRLDAp
notes: as for B4
The molecule B19 came in with a t1/2 in experiment [3] of over 1.67 h.

B20: spSRLEEELRRRLTAp (SEQ ID NO: 11) (peptide)
peptide: SPSRLEEELRRRLTAP
notes: as for B4
Molecule B20 displayed a t1/2 in experiment [3] of over 1.67 h.

B21: spSGLEQELRRRLEAp (SEQ ID NO: 24) (peptide)
peptide: SPSGLEQELRRRLEAP
notes: as for B4
Turning to B21, the t1/2 in [3] is over 1.67 h.

B22: spSGLEQELRRRLTAp (SEQ ID NO: 22) (peptide)
peptide: SPSGLEQELRRRLTAP
notes: as for B4
Turning to B22, the t1/2 in experiment [3] was over 1.67 h.

B23: spSRLEEELRRRLTDp (SEQ ID NO: 14) (peptide)
peptide: SPSRLEEELRRRLTDP
notes: as for B4
In turn, B23 showed a t1/2 in experiment [3] of over 1.67 h.

B24: spSGLEQELRRRLDAp (SEQ ID NO: 23) (peptide)
peptide: SPSGLEQELRRRLDAP
notes: as for B4
Molecule B24 showed a t1/2 in experiment [3] of over 1.67 h.

B25: gPSRLEEELRRRLTAas. (SEQ ID NO: 21) (peptide)
peptide: GPSRLEEELRRRLTAAS
notes: as for B2
In [2], B25 came in with a t1/2 of over 1.67 h.

B26: MSRLEEELRRRLTEp (SEQ ID NO: 29) (peptide)
peptide: MSRLEEELRRRLTEP
notes: as for B1
As to B26, the t1/2 in [1] is over 1.67 h.

B27: pSRLEEELRRRLTEp (SEQ ID NO: 6) (peptide)
peptide: PSRLEEELRRRLTEP
modifications: not fully specified (residues 1, 15); printed as pSRLEEELRRRLTEp
notes: Tag tested inside a fusion protein, position M; also called ALFA^ST tag (internal)
Consider B27, for which the t1/2 in experiment [3] is over 1.67 h.

B28: spSRLEEELRRRLTAdp (SEQ ID NO: 16) (peptide)
peptide: SPSRLEEELRRRLTADP
notes: as for B4
For the molecule B28, the t1/2 in experiment [3] is over 1.67 h.

B29: pgSRLEEELRRRLTAp (SEQ ID NO: 09) (peptide)
peptide: PGSRLEEELRRRLTAP
notes: as for B4
In experiment [3], B29 gave a t1/2 of over 1.67 h.
